# Results reported in FireProtDB (doi:10.1021/bi972394l).
# “And” between values parts separate entries of the source, which are not always exact repeats. Equal values may be shown once.
# B1: Superoxide dismutase [Mn], mitochondrial, P04179 (parent)
# chain: MLSRAVCGTSRQLAPVLGYLGSRQKHSLPDLPYDYGALEPHINAQIMQLHHSKHHAAYVNNLNVTEEKYQEALAKGDVTAQIALQPALKFNGGGHINHSIFWTNLSPNGGGEPKGELLEAIKRDFGSFDKFKEKLTAASVGVQGSGWGWLGFNKERGHLQIAACPNQDPLQGTTGLIPLLGIDVWEHAYYLQYKNVRPDYLKAIWNVINWENVTERYMACKK
# Variants of: B1
# Conditions: Homo sapiens; pH 7.8; 88.9 °C; Thermal; DSC; potassium phosphate 2 mM; transition: 2; reversible: Yes; structure 1N0J; whole UniProt chain shown
row,Variant,ddG of mutation (higher = less stable) [kcal/mol]
1,Y58F,-3.1

# Same assay, conditions: Homo sapiens; pH 7.8; Thermal; DSC; potassium phosphate 2 mM; transition: 2; reversible: Yes; structure 1N0J; whole UniProt chain shown
row,Variant,unfolding enthalpy (calorimetric)
1,Y58F,351 kcal/mol and 197 kcal/mol
